In patent US20230088461A1 (NANJING LEGEND BIOTECH, published 2023):
Like-named read-outs stand apart in the source and are kept apart here.

Legend:
[1] = target: T1, GPC3 (analyte of Tables 9 and 10) (UniProt P51654 25-559, limits assumed); test: SPR (Biacore T200), purified antibody captured through Fc, GPC3 as analyte, 1:1 model
Protocol: (§1) Antibodies were immobilized on the sensor chip through Fc capture method. GPC3 was used as the analyte. The surface was regenerated before the injection of another antibody. The process was repeated until all antibodies are analyzed. The off-rates of antibodies were obtained from fitting the experimental data locally to 1:1 interaction model using the Biacore T200 evaluation software. The data of dissociation (kd) and association (ka) rate constants (KD) were calculated from the ration of kd over ka.

[2] = target: T1, GPC3 (analyte of Tables 9 and 10); test: as above; remark: listed apart in the source
Protocol: as §1

recombinant human GPC3 = target: T2, recombinant human GPC3 (human, UniProt P51654 25-559, limits assumed); test: SPR (Biacore), antibody as ligand, recombinant human GPC3 as analyte, 1:1 Langmuir model
T2 construct: also called hGPC3
Protocol: The binding kinetics of the antibodies to recombinant human GPC3 were measured by the surface plasmon resonance (SPR) (e.g., Biacore). Binding rate (Kₐ) and dissociation rates (Kd) were calculated using a simple one-to-one Langmuir binding model (Biacore Evaluation Software). The equilibrium dissociation constant (KD) is calculated as the ratio Kd/Kₐ.

[3] = target: T3, human GPC3 on SK-HEP-1-huGPC3 cells (human, UniProt P51654 25-554); test: flow cytometry on SK-HEP-1-huGPC3 cells, PE anti-mouse IgG Fc; note: test concentration or dose not given here
T3 construct: whole, on cells

[4] = target: T4, cynomolgus monkey GPC3 on SK-HEP-1-cmGPC3 cells (cynomolgus monkey, UniProt A0A2K5VK50 24-553); test: flow cytometry on SK-HEP-1-cmGPC3 cells, PE anti-mouse IgG Fc; note: test concentration or dose not given here
T4 construct: whole, on cells

[5] = target: T5, mouse GPC3 on SK-HEP-1-muGPC3 cells (mouse, UniProt Q8CFZ4 25-553); test: flow cytometry on SK-HEP-1-muGPC3 cells, PE anti-mouse IgG Fc; note: test concentration or dose not given here
T5 construct: whole, on cells
T5 sequence (Q8CFZ4 25-553 limits assumed): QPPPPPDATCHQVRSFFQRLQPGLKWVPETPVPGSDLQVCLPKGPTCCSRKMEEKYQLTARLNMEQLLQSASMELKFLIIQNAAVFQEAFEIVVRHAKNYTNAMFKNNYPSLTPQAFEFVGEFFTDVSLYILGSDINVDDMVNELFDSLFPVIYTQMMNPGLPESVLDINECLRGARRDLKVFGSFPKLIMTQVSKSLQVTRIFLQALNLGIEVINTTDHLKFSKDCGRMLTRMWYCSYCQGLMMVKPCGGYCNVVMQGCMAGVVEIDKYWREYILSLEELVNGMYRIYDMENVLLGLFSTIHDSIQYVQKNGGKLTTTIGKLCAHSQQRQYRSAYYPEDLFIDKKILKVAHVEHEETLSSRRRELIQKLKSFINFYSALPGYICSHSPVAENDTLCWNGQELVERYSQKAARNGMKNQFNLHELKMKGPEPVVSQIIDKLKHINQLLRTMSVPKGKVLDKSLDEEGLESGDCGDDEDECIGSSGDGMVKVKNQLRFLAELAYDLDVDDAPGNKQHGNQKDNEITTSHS

Binder | Kd [1] [nM] | koff [1] [s⁻¹] | kon [1] [M⁻¹ s⁻¹] | Kd [2] [nM] | koff [2] [s⁻¹] | kon [2] [M⁻¹ s⁻¹] | Kd (recombinant human GPC3) [nM] | koff (recombinant human GPC3) [s⁻¹] | kon (recombinant human GPC3) [M⁻¹ s⁻¹] | Positive population, % [3] [%] | Positive population, % [4] [%] | Positive population, % [5] [%]
9VH1VL3-hIgG1 (antibody, V domains shown, Humanized LAb19309, full-length human IgG1/kappa; also called 9VH1VL3-hIgG1 mAb) VH: QVQLVQSGAEVKKPGASVKVSCKASGYTFTDYEMHWVRQAPGQRLEWMGGIDPETGNTAYSQKFKGRVTITRDTSASTAYMELSSLRSEDTAVYYCARYYSFAYWGQGTLVTVSS VL: DIVMTQSPDSLAVSLGERATINCRSSQTIVHSNGNTYLEWYQQKPGQPPKLLIYKVSNRFSGVPDRFSGSGSGTDFTLTISSLQAEDVAVYYCFQVSHVPYTFGGGTKLEIKR | 1.53 | 0.00014 | 91300 |  |  |  |  |  |  |  |  | 
5VH2VL2-hIgG1 (antibody, V domains shown, Humanized LAb19305, full-length human IgG1/kappa) VH: QVQLVQSGAEVKKPGASVKVSCKASGYTFTAYEMHWVRQAPGQGLEWMGGIDPETGNTAYSQNFKGRVTMTRDTSTSTVYMELSSLRSEDTAVYYCARYYSFAYWGQGTLVTVSS VL: DIVMTQSPLSLPVTPGEPASISCRSSQTIVHSNGNTYLEWYLQKPGQSPQLLIYKVSNRFSGVPDRFSGSGSGTDFTLKISRVEAEDVGVYYCFQVSHVPYTFGGGTKLEIKR |  |  |  | 0.572 | 8.91e-05 | 156000 |  |  |  |  |  | 
9VH3VL3-hIgG1 (antibody, V domains shown, Humanized LAb19309, full-length human IgG1/kappa) VH: QVQLVQSGAEVKKPGASVKVSCKASGYTFTDYEMHWVRQATGQGLEWMGGIDPETGNTAYSQKFKGRVTMTRNTSISTAYMELSSLRSEDTAVYYCARYYSFAYWGQGTLVTVSS VL: DIVMTQSPDSLAVSLGERATINCRSSQTIVHSNGNTYLEWYQQKPGQPPKLLIYKVSNRFSGVPDRFSGSGSGTDFTLTISSLQAEDVAVYYCFQVSHVPYTFGGGTKLEIKR | 1.13 | 0.000145 | 129000 |  |  |  |  |  |  |  |  | 
5VH1VL2-hIgG1 (antibody, V domains shown, Humanized LAb19305, full-length human IgG1/kappa) VH: QVQLVQSGAEVKKPGASVKVSCKASGYTFTAYEMHWVRQAPGQRLEWMGGIDPETGNTAYSQNFKGRVTITRDTSASTAYMELSSLRSEDTAVYYCARYYSFAYWGQGTLVTVSS VL: DIVMTQSPLSLPVTPGEPASISCRSSQTIVHSNGNTYLEWYLQKPGQSPQLLIYKVSNRFSGVPDRFSGSGSGTDFTLKISRVEAEDVGVYYCFQVSHVPYTFGGGTKLEIKR |  |  |  | 1.1 | 0.000117 | 107000 |  |  |  |  |  | 
Chimeric LAb19309-hIgG1 (antibody, V domains shown, The mouse VH/VL numbers follow the parallel order of the lists, as for LAb19309) VH: QVQLQQSGAELVRPGASVTLSCKASGYTFTDYEMHWVKQTPVHGLEWIGGIDPETGNTAYSQKFKGKATLTADKSSSTAYMEVRSLTSEDSAVYYCTRYYSFAYWGQGTLVTVSA VL: DVLMTQTPLSLPVNLGDQASISCRSSQTIVHSNGNTYLEWYLQKPGQSPKLLIYKVSNRFSGVPDRFSGSGSGTDFTLRISRVEAEDLGVYYCFQVSHVPYTFGGGTKLEIKR | 3.56 | 0.000239 | 67100 |  |  |  |  |  |  |  |  | 
LAb19304 (antibody, V domains shown, Mouse monoclonal antibody purified from hybridoma supernatant) VH: QVQLQQSGAELVRPGASVTLSCKASGYTFTAYEMHWVKQTPVHGLEWIGGIDPETGNTAYSQKFKGKATLTADKSSSTAYMEVRSLTSEDSAVYYCSRYYSFAYWGQGTLVTVSA VL: DVLMTQTPLSLPVSLGDQASISCRSSQTIVHSNGNTYLEWYLQKPGQSPKLLIYKVSNRFSGVPDRFSGSGSGTDFTLKISRVEAEDLGVYYCFQVSHVPYTFGGGTKLEIK |  |  |  |  |  |  | 5.11 | 0.000138 | 27000 | 91.9 | 94.6 | 25.6
LAb19303 (antibody, V domains shown, Mouse monoclonal antibody purified from hybridoma supernatant) VH: QVQLQQSGAELVRPGASVTLSCEASGYTFNDYEMHWVKQTPVHGLEWIGAIDPETGATAYNQKFKGKATLTADKSSSTAYMELRSLTSEDTAVYYCTRYYSFAYWGQGTLVTVSA VL: DVLMTQTPLSLPVSLGDQASISCRSSQSFVHSNGNTYLQWYLQKPGQSPKLLIYKVSNRFSGVPDRFSGSGSGTDFTLKISRVEAEDLGVYYCFQGSHVPYTFGGGTKLEIK |  |  |  |  |  |  |  |  |  |  |  | 0.72
LAb19309 (antibody, V domains shown, Mouse monoclonal antibody purified from hybridoma supernatant) VH: QVQLQQSGAELVRPGASVTLSCKASGYTFTDYEMHWVKQTPVHGLEWIGGIDPETGNTAYSQKFKGKATLTADKSSSTAYMEVRSLTSEDSAVYYCTRYYSFAYWGQGTLVTVSA VL: DVLMTQTPLSLPVNLGDQASISCRSSQTIVHSNGNTYLEWYLQKPGQSPKLLIYKVSNRFSGVPDRFSGSGSGTDFTLRISRVEAEDLGVYYCFQVSHVPYTFGGGTKLEIK |  |  |  |  |  |  | 8.38 | 0.000195 | 23300 | 92.7 | 91.9 | 1.02
Chimeric LAb19305-hIgG1 (antibody, V domains shown, The mouse VH/VL numbers follow the parallel order of the lists, as for LAb19305) VH: QVQLQQSGAELVRPGASVTLSCKASGYTFTAYEMHWVKQTPVYGLEWIGGIDPETGNTAYSQNFKGKATLTADKSSSTAYMEVRSLTSEDSAVYYCSRYYSFAYWGQGTLVTVSA VL: DVLMTQTPLSLPVSLGDQASISCRSSQTIVHSNGNTYLEWYLQKPGQSPKLLIYKVSNRFSGVPDRFSGSGSGTDFTLKISRVEAEDLGVYYCFQVSHVPYTFGGGTKLEIKR |  |  |  | 0.84 | 0.000103 | 123000 |  |  |  |  |  | 
LAb19301 (antibody, V domains shown, Mouse monoclonal antibody purified from hybridoma supernatant) VH: DVQLQESGPDLVKPSQSLSLTCTVTGYSITSGFSWHWIRQFPGHKLEWMGFMQYSGNTNYNPSLKSRISFTRDTSKNQFFLQLKSVTPEDTATYYCARREEGAWFAYWGQGTLVTVSA VL: DVVMTQTPLSLPVSLGDQASISCGSSQSLVHSNGNTYLHWYLQKPGQSPKLLIYKVSNRFSGVPDRFSGSGSGTDFTLKISRVEAEDLGVYFCSQSTHFPFTFGSGTKLEIK |  |  |  |  |  |  | 122 | 0.00207 | 16900 | 72.6 | 18.5 | 17.5
LAb19307 (antibody, V domains shown, Mouse monoclonal antibody purified from hybridoma supernatant) VH: EVQLVESGGDLVKPGGSLKLSCAASGFAFGTYDMSWVRQTPEKRLEWVAYISSGGNSPYYPQTVKGRFTISRDNAKNTLYLQMSSLKSEDTAMYYCARQNIARRGAMDFWGQGASVTVSS VL: DVVLTQSPLSQPVSLGDQASISCTSSQSLLHSNGNTYLHWYLQKPGQSPKLLIYKVSNRFSGVPDRFSGSGSGTDFTLKISRVEAEDLGVYFCSQSTHVPPTFGGGTKLEIK |  |  |  |  |  |  | 58.7 | 0.00178 | 30200 | 92.9 | 11.6 | 83.3
LAb19306 (antibody, V domains shown, Mouse monoclonal antibody purified from hybridoma supernatant) VH: EVQLVESGGGLVKPGGSLKLSCAASGFAFSTYDMSWVRQTPERRLEWVAYISSGGATTYYPDSVKGRFTISRDNAKNTLYLQMSSLKSEDTAMYYCARLSLMIRGWFAYWGQGTLVTVSA VL: DVVMTQTPLSLPVSLGDQASISCRSSQSLVHSNGNTYLHWYLQKPGQSPKLLIYKVSNRFSGVPDRFSGSGSGTDFTLKISRVEAEDLGVYFCSQSTHVPYTFGGGTKLEIK |  |  |  |  |  |  | 28.4 | 0.00077 | 27100 | 86.2 | 3.32 | 75.8

Continued, values first:

Kd [1] [nM] | koff [1] [s⁻¹] | kon [1] [M⁻¹ s⁻¹] | Kd [2] [nM] | koff [2] [s⁻¹] | kon [2] [M⁻¹ s⁻¹] | Kd (recombinant human GPC3) [nM] | koff (recombinant human GPC3) [s⁻¹] | kon (recombinant human GPC3) [M⁻¹ s⁻¹] | Positive population, % [3] [%] | Positive population, % [4] [%] | Positive population, % [5] [%] | Binder
0.672 | 9.01e-05 | 134000 |  |  |  |  |  |  |  |  |  | 9VH3VL2-hIgG1 (antibody, V domains shown, Humanized LAb19309, full-length human IgG1/kappa; also called 9VH3VL2-hIgG1 mAb) VH: QVQLVQSGAEVKKPGASVKVSCKASGYTFTDYEMHWVRQATGQGLEWMGGIDPETGNTAYSQKFKGRVTMTRNTSISTAYMELSSLRSEDTAVYYCARYYSFAYWGQGTLVTVSS VL: DIVMTQSPLSLPVTPGEPASISCRSSQTIVHSNGNTYLEWYLQKPGQSPQLLIYKVSNRFSGVPDRFSGSGSGTDFTLKISRVEAEDVGVYYCFQVSHVPYTFGGGTKLEIKR
 |  |  | 0.544 | 8.76e-05 | 161000 |  |  |  |  |  |  | 5VH2VL3-hIgG1 (antibody, V domains shown, Humanized LAb19305, full-length human IgG1/kappa) VH: QVQLVQSGAEVKKPGASVKVSCKASGYTFTAYEMHWVRQAPGQGLEWMGGIDPETGNTAYSQNFKGRVTMTRDTSTSTVYMELSSLRSEDTAVYYCARYYSFAYWGQGTLVTVSS VL: DIVMTQSPDSLAVSLGERATINCRSSQTIVHSNGNTYLEWYQQKPGQPPKLLIYKVSNRFSGVPDRFSGSGSGTDFTLTISSLQAEDVAVYYCFQVSHVPYTFGGGTKLEIKR
 |  |  |  |  |  | 4.19 | 0.00013 | 31100 | 92.6 | 94.2 | 17 | LAb19305 (antibody, V domains shown, Mouse monoclonal antibody purified from hybridoma supernatant) VH: QVQLQQSGAELVRPGASVTLSCKASGYTFTAYEMHWVKQTPVYGLEWIGGIDPETGNTAYSQNFKGKATLTADKSSSTAYMEVRSLTSEDSAVYYCSRYYSFAYWGQGTLVTVSA VL: DVLMTQTPLSLPVSLGDQASISCRSSQTIVHSNGNTYLEWYLQKPGQSPKLLIYKVSNRFSGVPDRFSGSGSGTDFTLKISRVEAEDLGVYYCFQVSHVPYTFGGGTKLEIK
 |  |  |  |  |  | 71.2 | 0.00184 | 25800 | 91.5 | 12.3 | 81.8 | LAb19302 (antibody, V domains shown, Mouse monoclonal antibody purified from hybridoma supernatant) VH: AVQLVESGGGLVRPGGSLKLSCAASGFAFSTYGMSWVRQTPETRLEWVAYISSGGATTYYPDSVKGRFTISRDNAKNTLYLQMSSLKSEDTAMYYCASLSIMIRGWFAYWGQGTLVTVSA VL: DVVMTQTPLSLPVSLGDQASISCRSSQSLVHSNGNTYLHWYLQKPGQSPKVLIYKVSNRFSGVPDRFSGSGSGTDFTLKISRVEAEDLGVYFCSQSTHVPYTFGGGTKLEIK
 |  |  |  |  |  | 41.4 | 0.00102 | 24700 | 91.4 | 9.55 | 82.4 | LAb19308 (antibody, V domains shown, Mouse monoclonal antibody purified from hybridoma supernatant) VH: EVQLVESGGGLVKPGGSLKLSCAASGFAFITYGMSWVRQTPEKRLEWVAYISSGGANTYYPDSVKGRFTISRDNAKNTLYLQMSSLKSEDTAMYYCASLSTLVRGWFAYWGQGTLVTVSA VL: DVVMTQTPLSLPVSLGDQASISCRSSQSLVHSNGNTYLHWYLQKPGQSPKLLIYKVSNRFSGVPDRFSGSGSGTDFTLKISRVEAEDLGVYFCSQSTHVPYTFGGGTKLEIK
